Test results: doi:10.1101/2024.02.24.581832

Target: N-terminal domain of MtbClpC1 (residues 1-145) (Mycobacterium tuberculosis) (UniProt P9WPC9)
Assay: differential scanning fluorimetry

Chain of UniProt P9WPC9 (P9WPC9 1-145): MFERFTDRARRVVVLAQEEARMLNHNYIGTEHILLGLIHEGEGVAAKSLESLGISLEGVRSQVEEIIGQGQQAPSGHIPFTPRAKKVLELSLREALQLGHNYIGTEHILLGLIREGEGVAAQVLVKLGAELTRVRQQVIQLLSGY

| Substance | ΔTm |
| --- | --- |
| ilamycin E (peptide) | 3 °C |
| ilamycin F (peptide) | 1 °C |
